Test results from US20210163584A1 (Sanofi, published 2021).

B1: mAb1 F7 (antibody, mouse IgG1, kappa)
heavy: HVQLQQSGPELVRPGASVKLSCKASGYIFITYWMNWVKQRPGQGLEWIGQIFPASGSTNYNEMFEGKATLTVDTSSSTAYMQLSSLTSEDSAVYYCARGDGNYALDAMDYWGQGTSVTVSSAKTTPPSVYPLAPGSAAQTNSMVTLGCLVKGYFPEPVTVTWNSGSLSSGVHTFPAVLQSDLYTLSSSVTVPSSTWPSQTVTCNVAHPASSTKVDKKIVPRDCGCKPCICTVPEVSSVFIFPPKPKDVLTITLTPKVTCVVVDISKDDPEVQFSWFVDDVEVHTAQTKPREEQFNSTFRSVSELPIMHQDWLNGKEFKCRVNSAAFPAPIEKTISKTKGRPKAPQVYTIPPPKEQMAKDKVSLTCMITDFFPEDITVEWQWNGQPAENYKNTQPIMDTDGSYFVYSKLNVQKSNWEAGNTFTCSVLHEGLHNHHTEKSLSHSPGKDDDDDDDDDD
light: DDDDDDDDDDNIVLTQSPASLAVSLGQRATISCRASESVDSYGNSFMHWYQQKSGQPPKLLIYLASNLESGVPARFSGSGSRTDFTLTIDPVEADDAATYYCQQNNEDPLTFGAGTKLELKRADAAPTVSIFPPSSEQLTSGGASVVCFLNNFYPKDINVKWKIDGSERQNGVLNSWTDQDSKDSTYSMSSTLTLTKDEYERHNSYTCEATHKTSTSPIVKSFNRNEC
notes: Mouse IgG1 fusion variant, PAR 4; also called HC-D10: D10-LC
B2: mAb1 F1 (antibody, mouse IgG1, kappa)
heavy: HVQLQQSGPELVRPGASVKLSCKASGYIFITYWMNWVKQRPGQGLEWIGQIFPASGSTNYNEMFEGKATLTVDTSSSTAYMQLSSLTSEDSAVYYCARGDGNYALDAMDYWGQGTSVTVSSAKTTPPSVYPLAPGSAAQTNSMVTLGCLVKGYFPEPVTVTWNSGSLSSGVHTFPAVLQSDLYTLSSSVTVPSSTWPSQTVTCNVAHPASSTKVDKKIVPRDCGCKPCICTVPEVSSVFIFPPKPKDVLTITLTPKVTCVVVDISKDDPEVQFSWFVDDVEVHTAQTKPREEQFNSTFRSVSELPIMHQDWLNGKEFKCRVNSAAFPAPIEKTISKTKGRPKAPQVYTIPPPKEQMAKDKVSLTCMITDFFPEDITVEWQWNGQPAENYKNTQPIMDTDGSYFVYSKLNVQKSNWEAGNTFTCSVLHEGLHNHHTEKSLSHSPGK
light: NIVLTQSPASLAVSLGQRATISCRASESVDSYGNSFMHWYQQKSGQPPKLLIYLASNLESGVPARFSGSGSRTDFTLTIDPVEADDAATYYCQQNNEDPLTFGAGTKLELKRADAAPTVSIFPPSSEQLTSGGASVVCFLNNFYPKDINVKWKIDGSERQNGVLNSWTDQDSKDSTYSMSSTLTLTKDEYERHNSYTCEATHKTSTSPIVKSFNRNEC
notes: Recombinant version of mAb1 without D10 peptide, mouse IgG1, PAR 0; also called Fusion 1; WT
B3: mAb1 F6 (antibody, mouse IgG1, kappa)
heavy: B1 heavy
light: B2 light
notes: Mouse IgG1 fusion variant, PAR 2; also called HC-D10: WT-LC; mAb1-D10
B4: mAb1 F2 (antibody, mouse IgG1, kappa)
heavy: B2 heavy
light: B1 light
notes: Mouse IgG1 fusion variant, PAR 2; also called WT-HC: D10-LC

target: T1, TGF-β1 (UniProt P01137 279-390); test: cell-based or functional assay
T1 sequence (P01137 279-390 limits assumed): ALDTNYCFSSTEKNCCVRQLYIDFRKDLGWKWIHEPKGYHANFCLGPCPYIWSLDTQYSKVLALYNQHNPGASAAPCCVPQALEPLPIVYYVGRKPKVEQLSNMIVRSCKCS

B1 was tested. Which “IC50 (read off the curve); IL-11 release by A549 cells in response to TGF-β1” value (“IC50 (read off the curve); IL-11 release” for short) did it give?
Its value is roughly 0.08 nM.

Which “IC50 (read off the curve); IL-11 release” value does the source give for B2 here?
The value was roughly 0.2 nM.

With B3 as the binder, how does the “IC50 (read off the curve); IL-11 release” value read?
The value was roughly 0.2 nM.

How did the “IC50 (read off the curve); IL-11 release” value turn out when B4 was run?
Its value is roughly 0.2 nM.

target: T1, TGF-β1; test: SPR (Biacore); amine-coupled TGF-β1 on chip, antibody as analyte, kinetic fit
Description: Recombinant mAb1-D10 fusion variants of Example 7 were also quantitatively assessed for TGF-β1 binding using surface plasmon resonance (SPR) as detected by Biacore. Samples containing purified variants were passed over a sensor chip with amine-coupled TGF-β1 to determine the equilibrium constant, KD. A target immobilization level of less than 100 response units (RU) of TGF-β1 was chosen to minimize the potential for avidity effects arising from binding adjacent TGF-β1 molecules on the chip. The level of immobilization was determined by the change in response units after NHS/EDC activation of the chip surface, but before quenching with ethanolamine. The fusion variants, WT fusion variant F1, and mAb1 control were diluted to 30, 10, 3, 1 and 0.37 nM in HBS-EP buffer and passed over the TGF-β1 chip at 30 μL/min for 3 min, followed by 5 min dissociation in the same buffer. Between runs, the chip surface was regenerated to remove any bound antibody by passing two 30 sec injections of 40 mM HCl over the chip at a flow rate of 75 μL/min. […] Unexpectedly, the maximum signal (RU) elicited by the fusion variants decreased with increasing number of peptides, with variant F17 (D10-HC-D10/D10-LC, PAR=6) showing the lowest signal. […] A possible explanation of this decline may reflect electrostatic repulsion between the chip matrix (carboxymethyl dextran) and the negatively charged D10 peptides.

B1 was tested. Which Kd did it give?
The Kd was 5.43 nM.

And the koff?
Its koff is 0.00094 s⁻¹.

And the kon?
Its kon is 172000 M⁻¹ s⁻¹.

Which results are given for B2?
Kd: 2.51 nM; koff: 0.00085 s⁻¹; kon: 338000 M⁻¹ s⁻¹

With B3 as the binder, how does the Kd read?
Its Kd is 4.58 nM.

What about the koff of the same binder?
Its koff is 0.00084 s⁻¹.

What about the kon of the same binder?
Its kon is 182000 M⁻¹ s⁻¹.

For B4, which Kd is on record?
Its Kd is 6.01 nM.

And the koff?
The koff was 0.001 s⁻¹.

And the kon?
Its kon is 166000 M⁻¹ s⁻¹.
